Test [1] has as its target GST-NUT8 wild type (396-470) (UniProt Q86Y26). As to the kind of experiment: BLI; GST-NUT8 wild type or mutants loaded on Anti-GST biosensors, TAZ2 (1723-1836) as analyte; 25 °C; 1x PBS, 0.1% BSA, 0.02% Tween 20; steady-state analysis. (In BLI a coated tip is dipped into the sample, and binding shifts an interference pattern.)
The target in test [2] is T1, NUT-F1c (347-588), tag cleaved (UniProt Q86Y26 347-588).
T1 construct: not shown: His6-GST (pETM-30) or His6 (pETM11), N-terminal, cleaved
Briefly: SEC; complex run on HiLoad Superdex 200, Superdex 200 Increase 10/300 GL or Superdex 75 Increase 10/300 GL; SDS-PAGE of the peak fractions. The settings on record: both partners purified. (In general: SEC sorts molecules by how far they enter the pores of the column.)

In the next test the target is T2, NUT4 (347-480), Q86Y26.
T2 chain: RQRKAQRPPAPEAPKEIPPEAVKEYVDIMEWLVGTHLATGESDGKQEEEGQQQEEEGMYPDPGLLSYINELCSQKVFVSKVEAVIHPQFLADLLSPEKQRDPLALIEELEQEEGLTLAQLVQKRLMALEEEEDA
As to the kind of experiment: SEC-MALS; Superdex 75 Increase 10/300 GL, 20 mM HEPES pH 7.0, 300 mM NaCl, 5 µM ZnSO4, 0.5 mM TCEP; 50 µl at 2 mg/ml injected.

The target of test [3] is T3, p300 TAZ2 domain (1723-1836), Q09472.
T3 chain: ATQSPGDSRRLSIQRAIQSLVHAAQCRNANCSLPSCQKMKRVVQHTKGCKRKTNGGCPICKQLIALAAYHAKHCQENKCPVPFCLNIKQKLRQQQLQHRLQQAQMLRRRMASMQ
As to the kind of experiment: BLI. The settings on record: chain shown with the change, read off a plot.

Changes are numbered by the printed parent chain. Numbers in names are those of the source.

The values below come from publication PMC9755262 (Nature Communications, 2022).

One may read the Kd as the equilibrium constant for the complex coming apart. The term stoichiometry N denotes the number of molecules, sites or subunits per partner or assembly.

Regarding “p300 TAZ2 domain (1723-1836) (from UniProt Q09472 1723-1836) (domain or fragment)”, in test [1], the Kd was 960 nM.

B1: p300 CH3 domain (1660-1815) (domain or fragment, UniProt Q09472 1660-1815, looked up)
chain: TQSQDRFVYTCNECKHHVETRWHCTVCEDYDLCITCYNTKNHDHKMEKLGLGLDDESNNQQAAATQSPGDSRRLSIQRCIQSLVHACQCRNANCSLPSCQKMKRVVQHTKGCKRKTNGGCPICKQLIALCCYHAKHCQENKCPVPFCLNIKQKLRQ
notes: p300 CH3 domain, residues 1660-1815, in pGEX-5x1 with a TEV-cleavable GST tag
B1: the binding result in test [2] was “binds”.

B2: p300 TAZ2 domain (construct limits not told for the experiment) (domain or fragment)
chain: T3 chain
modifications: not checked
Turning to B2, in the test with NUT4 (347-480), Q86Y26, the stoichiometry N turned out to be 1.

B3: GST-NUT8 wild type D447A; L449A; A450G; L451A; E453A; E454A; L455A; E456A; E458A; E459A; L461A; T462A (protein)
chain: GQQQEEEGMYPDPGLLSYINELCSQKVFVSKVEAVIHPQFLADLLSPEKQRAPAGAIAAAAQAAGAALAQLVQKRLMALEEEEDAE
Consider B3, for which the response in test [3] (TAZ2 2.5 µM, parent: est. 0.18) came to 0.07 nm; in test [3] (TAZ2 5 µM, parent: est. 0.21), 0.11 nm; in test [3] (TAZ2 10 µM, parent: est. 0.22) it was 0.13 nm.

B4: GST-NUT8 wild type L436A; L439A; L440A; D447A; L449A; A450G; L451A; E453A; E454A; L455A; E456A; E458A; E459A; L461A; T462A (protein)
chain: B3 chain with L41A, L44A, L45A
Consider B4, for which the response in test [3] (TAZ2 2.5 µM, parent: est. 0.18) is 0.075 nm; in test [3] (TAZ2 5 µM, parent: est. 0.21), 0.14 nm; in test [3] (TAZ2 10 µM, parent: est. 0.22) it was 0.2 nm.

B5: GST-NUT8 wild type D407K; L410A; Y413K; C418G; F423A; V424G; E428S; V430G; P433G; F435S; L439G; L440S; D447K; A450G; L451S; E454K; L455S; E458K; E459S; L461G; … (protein)
chain: GQQQEEEGMYPKPGALSKINELGSQKVAGSKVSAGIHGQSLADGSSPEKQRKPLGSIEKSEQKSGGSLAQLVQKRLMALEEEEDAE
Take B5: in test [3] (TAZ2 10 µM, parent: est. 0.22), the response was found to be 0.03 nm.

B6: GST-NUT8 wild type L410A; L411A; Y413A; L417A; C418A; F423A; V424A; V427A; V430A; I431A; F435A; L436A; L439A; L440A; D447A; L449A; A450G; L451A; E453A; E454A; … (protein)
chain: GQQQEEEGMYPDPGAASAINEAASQKVAASKAEAAAHPQAAADAASPEKQRAPAGAIAAAAQAAGAALAQLVQKRLMALEEEEDAE
With B6, the response in test [3] (TAZ2 10 µM, parent: est. 0.22) was 0.085 nm.
